The target in assay [1] is T1, human Y2 receptor (human), P49146.
T1 chain: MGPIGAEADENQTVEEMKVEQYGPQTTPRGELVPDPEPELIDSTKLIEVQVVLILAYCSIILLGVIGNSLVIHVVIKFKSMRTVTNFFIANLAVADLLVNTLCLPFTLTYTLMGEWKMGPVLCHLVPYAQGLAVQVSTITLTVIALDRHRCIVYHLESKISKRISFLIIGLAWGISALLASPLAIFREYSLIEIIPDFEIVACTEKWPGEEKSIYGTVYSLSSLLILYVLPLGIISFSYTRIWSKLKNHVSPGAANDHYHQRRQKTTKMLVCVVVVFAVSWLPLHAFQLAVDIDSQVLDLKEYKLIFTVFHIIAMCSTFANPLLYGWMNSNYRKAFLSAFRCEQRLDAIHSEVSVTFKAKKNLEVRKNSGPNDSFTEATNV
In words: competition binding, 125I-PYY displaced, COS-7 cells with human Y2.

Assay [2] deals with human Y4 receptor (human), P50391. Kind of assay: competition binding, 125I-PP displaced, COS-7 cells with human Y4.
Chain of human Y4 receptor (human), P50391 (P50391 whole entry): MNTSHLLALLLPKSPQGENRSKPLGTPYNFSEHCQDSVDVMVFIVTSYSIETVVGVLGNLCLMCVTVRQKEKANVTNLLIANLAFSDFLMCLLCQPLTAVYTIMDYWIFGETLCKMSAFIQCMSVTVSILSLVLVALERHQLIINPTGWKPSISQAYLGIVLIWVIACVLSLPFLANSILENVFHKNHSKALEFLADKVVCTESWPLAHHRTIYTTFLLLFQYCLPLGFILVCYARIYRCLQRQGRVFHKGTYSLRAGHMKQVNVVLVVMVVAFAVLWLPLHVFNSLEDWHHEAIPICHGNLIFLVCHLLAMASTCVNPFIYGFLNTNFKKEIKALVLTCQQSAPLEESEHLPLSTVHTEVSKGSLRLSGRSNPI
For assay [3], the target named is T2, human Y5 receptor (human), Q15761.
T2 chain: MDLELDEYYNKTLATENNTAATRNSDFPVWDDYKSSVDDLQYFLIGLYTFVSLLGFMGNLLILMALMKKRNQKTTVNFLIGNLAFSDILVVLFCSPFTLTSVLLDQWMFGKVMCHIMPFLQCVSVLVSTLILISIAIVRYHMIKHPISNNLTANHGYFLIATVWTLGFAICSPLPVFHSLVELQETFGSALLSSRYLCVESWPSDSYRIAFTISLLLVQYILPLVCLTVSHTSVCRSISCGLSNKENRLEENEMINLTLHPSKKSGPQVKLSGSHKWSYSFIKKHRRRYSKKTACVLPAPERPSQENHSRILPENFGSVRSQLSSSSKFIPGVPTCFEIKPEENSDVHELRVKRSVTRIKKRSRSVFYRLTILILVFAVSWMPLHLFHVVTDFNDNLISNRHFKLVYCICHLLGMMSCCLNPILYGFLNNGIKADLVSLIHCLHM
Kind of assay: cell-based or functional assay.

In assay [4] the target is human Y4 receptor (human), P50391. In words: cell-based or functional assay.
For assay [5], the target named is T1, human Y2 receptor (human), P49146. Kind of assay: cell-based or functional assay.
For assay [6], the target named is T3, human Y1 receptor (human), P25929.
T3 chain: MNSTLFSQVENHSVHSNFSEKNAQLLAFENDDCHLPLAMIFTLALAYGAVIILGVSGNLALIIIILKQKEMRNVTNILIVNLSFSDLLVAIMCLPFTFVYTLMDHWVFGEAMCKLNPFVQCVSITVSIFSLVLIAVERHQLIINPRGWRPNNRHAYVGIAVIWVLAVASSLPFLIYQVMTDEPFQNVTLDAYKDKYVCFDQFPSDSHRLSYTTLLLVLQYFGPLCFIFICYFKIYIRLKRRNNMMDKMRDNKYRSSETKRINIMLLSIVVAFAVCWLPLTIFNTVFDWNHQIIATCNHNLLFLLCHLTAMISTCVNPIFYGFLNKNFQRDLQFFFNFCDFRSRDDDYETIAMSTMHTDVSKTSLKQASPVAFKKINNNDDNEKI
Kind of assay: cell-based or functional assay.

For orientation: IC50 means the point on the concentration scale where inhibition reaches its midpoint.

Non-standard residues stand in square brackets, D forms with d. Primed or numbered codes have the meaning given here. No end group written: not given here. Aoc′ = not defined here Where only a bound is given, the exact number is not on record here.

In the case of YCIK[Aoc′]RH[dC]LNLVTRQRY (cysteine pairing not given here; reading uncertain) [[Cys2, Aoc5-24, D-Cys27]PYY], the concentration for half-maximal inhibition (IC50) came out at 0.87 nM in assay [1] and 267 nM in assay [2]. Further, the EC50 (inositol phosphate turnover) in assay [3] is > 1000 nM; in assay [4], > 1000 nM; in assay [5], 3.7 nM; in assay [6], > 1000 nM.

For the origin of these results see patent publication US20090186811A1, “Y2 Selective Receptor Agonists for Therapeutic Interventions” (priority 2004, published 2009).
